Results reported in US20140087995A1 (published 2014).
Numbered stars: 1 amine (or outer) side, 2 acyl side, 3 side chain; on linkers, the order of the positions; unused ones are H or OH. Bridge positions count the residues as written; N and C are the ends. Side chains are listed from the residue outwards. Ends that are not written are not given here. * marks the point of attachment. C20 diacid = O=C(O)CCCCCCCCCCCCCCCCCCC(=O)*; γGlu = O=C(O)[C@H](CCC(=O)[*:2])N[*:1]

T1: rat calcitonin receptor (rat, UniProt P32214 25-516)
T1 construct: whole, on cells; Membranes prepared from transiently transfected BHK tk'ts 13 cells; also called rCTR; rat calcitonin (a) receptor
T1 sequence (looked up): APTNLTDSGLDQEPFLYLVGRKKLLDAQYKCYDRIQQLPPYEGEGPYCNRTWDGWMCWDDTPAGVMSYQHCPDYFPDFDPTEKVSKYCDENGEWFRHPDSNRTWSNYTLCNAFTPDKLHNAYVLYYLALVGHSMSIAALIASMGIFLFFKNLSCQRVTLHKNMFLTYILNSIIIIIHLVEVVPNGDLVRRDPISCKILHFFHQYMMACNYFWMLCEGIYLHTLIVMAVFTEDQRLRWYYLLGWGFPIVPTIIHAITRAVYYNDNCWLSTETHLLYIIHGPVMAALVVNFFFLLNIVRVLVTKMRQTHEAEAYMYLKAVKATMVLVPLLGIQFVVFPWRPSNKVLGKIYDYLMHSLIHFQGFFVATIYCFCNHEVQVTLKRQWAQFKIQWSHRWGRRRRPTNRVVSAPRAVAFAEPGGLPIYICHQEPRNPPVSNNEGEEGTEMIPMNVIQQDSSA

T2: rat amylin receptor (rat calcitonin receptor + rat RAMP 3) (rat, UniProt P32214 25-516; Q9JJ73 23-147)
T2 construct: whole, on cells; Membranes prepared from transiently transfected BHK tk'ts 13 cells; also called rAmylin-R; rat amylin 3(a) receptor
T2 sequence (looked up) 1: T1 sequence (looked up)
T2 sequence (looked up) 2: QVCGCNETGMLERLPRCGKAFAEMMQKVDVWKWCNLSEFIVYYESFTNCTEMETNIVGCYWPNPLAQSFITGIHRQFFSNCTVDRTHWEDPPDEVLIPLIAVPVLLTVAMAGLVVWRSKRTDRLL

T3: human calcitonin receptor (human, UniProt P30988 25-474)
T3 construct: whole, on cells; Membranes from stably transfected BHK cells; also called hCTR; hCT
T3 sequence (looked up): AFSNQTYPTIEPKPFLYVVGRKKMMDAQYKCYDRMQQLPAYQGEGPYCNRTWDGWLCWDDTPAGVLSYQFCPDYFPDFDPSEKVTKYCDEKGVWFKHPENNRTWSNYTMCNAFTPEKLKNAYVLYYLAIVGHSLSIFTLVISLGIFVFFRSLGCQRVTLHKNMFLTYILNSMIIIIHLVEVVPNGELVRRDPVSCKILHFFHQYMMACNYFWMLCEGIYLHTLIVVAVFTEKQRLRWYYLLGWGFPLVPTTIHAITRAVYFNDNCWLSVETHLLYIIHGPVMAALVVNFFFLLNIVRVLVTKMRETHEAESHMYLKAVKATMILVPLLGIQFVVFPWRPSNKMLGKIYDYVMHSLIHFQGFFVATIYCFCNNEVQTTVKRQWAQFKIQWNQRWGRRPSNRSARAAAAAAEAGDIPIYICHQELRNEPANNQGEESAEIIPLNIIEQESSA

B1: N^ε1-[(4S)-4-carboxy-4-(19-carboxynonadecanoylamino)butanoyl]-[Glu14,Arg17,Pro21,Pro27,His35]-h-amylin (peptide)
peptide: K([γGlu-C20 diacid])CNTATCATQRLAEFLRHSSPNFGAIPSSTNVGSHTY-NH2
modifications: disulfide 2-7; N-terminus assumed
SMILES: CC[C@H](C)[C@H](NC(=O)[C@H](C)NC(=O)CNC(=O)[C@H](Cc1ccccc1)NC(=O)[C@H](CC(N)=O)NC(=O)[C@@H]1CCCN1C(=O)[C@H](CO)NC(=O)[C@H](CO)NC(=O)[C@H](Cc1c[nH]cn1)NC(=O)[C@H](CCCNC(=N)N)NC(=O)[C@H](CC(C)C)NC(=O)[C@H](Cc1ccccc1)NC(=O)[C@H](CCC(=O)O)NC(=O)[C@H](C)NC(=O)[C@H](CC(C)C)NC(=O)[C@H](CCCNC(=N)N)NC(=O)[C@H](CCC(N)=O)NC(=O)[C@@H](NC(=O)[C@H](C)NC(=O)[C@@H]1CSSC[C@H](NC(=O)[C@@H](N)CCCCNC(=O)CC[C@H](NC(=O)CCCCCCCCCCCCCCCCCCC(=O)O)C(=O)O)C(=O)N[C@@H](CC(N)=O)C(=O)N[C@@H]([C@@H](C)O)C(=O)N[C@@H](C)C(=O)N[C@@H]([C@@H](C)O)C(=O)N1)[C@@H](C)O)C(=O)N1CCC[C@H]1C(=O)N[C@@H](CO)C(=O)N[C@@H](CO)C(=O)N[C@H](C(=O)N[C@@H](CC(N)=O)C(=O)N[C@H](C(=O)NCC(=O)N[C@@H](CO)C(=O)N[C@@H](Cc1c[nH]cn1)C(=O)N[C@H](C(=O)N[C@@H](Cc1ccc(O)cc1)C(N)=O)[C@@H](C)O)C(C)C)[C@@H](C)O
B2: N^ε1-[(4S)-4-carboxy-4-(19-carboxynonadecanoylamino)butanoyl]-[His14,Arg17,Pro21,Pro27,Pro31,Pro34]-h-amylin (peptide)
peptide: K([γGlu-C20 diacid])CNTATCATQRLAHFLRHSSPNFGAIPSSTPVGPNTY-NH2
modifications: disulfide 2-7; N-terminus assumed
SMILES: CC[C@H](C)[C@H](NC(=O)[C@H](C)NC(=O)CNC(=O)[C@H](Cc1ccccc1)NC(=O)[C@H](CC(N)=O)NC(=O)[C@@H]1CCCN1C(=O)[C@H](CO)NC(=O)[C@H](CO)NC(=O)[C@H](Cc1c[nH]cn1)NC(=O)[C@H](CCCNC(=N)N)NC(=O)[C@H](CC(C)C)NC(=O)[C@H](Cc1ccccc1)NC(=O)[C@H](Cc1c[nH]cn1)NC(=O)[C@H](C)NC(=O)[C@H](CC(C)C)NC(=O)[C@H](CCCNC(=N)N)NC(=O)[C@H](CCC(N)=O)NC(=O)[C@@H](NC(=O)[C@H](C)NC(=O)[C@@H]1CSSC[C@H](NC(=O)[C@@H](N)CCCCNC(=O)CC[C@H](NC(=O)CCCCCCCCCCCCCCCCCCC(=O)O)C(=O)O)C(=O)N[C@@H](CC(N)=O)C(=O)N[C@@H]([C@@H](C)O)C(=O)N[C@@H](C)C(=O)N[C@@H]([C@@H](C)O)C(=O)N1)[C@@H](C)O)C(=O)N1CCC[C@H]1C(=O)N[C@@H](CO)C(=O)N[C@@H](CO)C(=O)N[C@H](C(=O)N1CCC[C@H]1C(=O)N[C@H](C(=O)NCC(=O)N1CCC[C@H]1C(=O)N[C@@H](CC(N)=O)C(=O)N[C@H](C(=O)N[C@@H](Cc1ccc(O)cc1)C(N)=O)[C@@H](C)O)C(C)C)[C@@H](C)O
B3: N^ε1-[(4S)-4-carboxy-4-[[(4S)-4-carboxy-4-(19-carboxynonadecanoylamino)butanoyl]amino]butanoyl]-[Arg17,Pro21,Pro27,Pro31,Pro34,Arg35]-h-amylin (peptide)
peptide: K([γGlu-γGlu-C20 diacid])CNTATCATQRLANFLRHSSPNFGAIPSSTPVGPRTY-NH2
modifications: disulfide 2-7; N-terminus assumed
SMILES: CC[C@H](C)[C@H](NC(=O)[C@H](C)NC(=O)CNC(=O)[C@H](Cc1ccccc1)NC(=O)[C@H](CC(N)=O)NC(=O)[C@@H]1CCCN1C(=O)[C@H](CO)NC(=O)[C@H](CO)NC(=O)[C@H](Cc1c[nH]cn1)NC(=O)[C@H](CCCNC(=N)N)NC(=O)[C@H](CC(C)C)NC(=O)[C@H](Cc1ccccc1)NC(=O)[C@H](CC(N)=O)NC(=O)[C@H](C)NC(=O)[C@H](CC(C)C)NC(=O)[C@H](CCCNC(=N)N)NC(=O)[C@H](CCC(N)=O)NC(=O)[C@@H](NC(=O)[C@H](C)NC(=O)[C@@H]1CSSC[C@H](NC(=O)[C@@H](N)CCCCNC(=O)CC[C@H](NC(=O)CC[C@H](NC(=O)CCCCCCCCCCCCCCCCCCC(=O)O)C(=O)O)C(=O)O)C(=O)N[C@@H](CC(N)=O)C(=O)N[C@@H]([C@@H](C)O)C(=O)N[C@@H](C)C(=O)N[C@@H]([C@@H](C)O)C(=O)N1)[C@@H](C)O)C(=O)N1CCC[C@H]1C(=O)N[C@@H](CO)C(=O)N[C@@H](CO)C(=O)N[C@H](C(=O)N1CCC[C@H]1C(=O)N[C@H](C(=O)NCC(=O)N1CCC[C@H]1C(=O)N[C@@H](CCCNC(=N)N)C(=O)N[C@H](C(=O)N[C@@H](Cc1ccc(O)cc1)C(N)=O)[C@@H](C)O)C(C)C)[C@@H](C)O
B4: N^ε1-[(4S)-4-carboxy-4-(19-carboxynonadecanoylamino)butanoyl]-[Glu14,Arg17,Pro21,Pro27,Pro34,Arg35]-h-amylin (peptide)
peptide: K([γGlu-C20 diacid])CNTATCATQRLAEFLRHSSPNFGAIPSSTNVGPRTY-NH2
modifications: disulfide 2-7; N-terminus assumed
SMILES: CC[C@H](C)[C@H](NC(=O)[C@H](C)NC(=O)CNC(=O)[C@H](Cc1ccccc1)NC(=O)[C@H](CC(N)=O)NC(=O)[C@@H]1CCCN1C(=O)[C@H](CO)NC(=O)[C@H](CO)NC(=O)[C@H](Cc1c[nH]cn1)NC(=O)[C@H](CCCNC(=N)N)NC(=O)[C@H](CC(C)C)NC(=O)[C@H](Cc1ccccc1)NC(=O)[C@H](CCC(=O)O)NC(=O)[C@H](C)NC(=O)[C@H](CC(C)C)NC(=O)[C@H](CCCNC(=N)N)NC(=O)[C@H](CCC(N)=O)NC(=O)[C@@H](NC(=O)[C@H](C)NC(=O)[C@@H]1CSSC[C@H](NC(=O)[C@@H](N)CCCCNC(=O)CC[C@H](NC(=O)CCCCCCCCCCCCCCCCCCC(=O)O)C(=O)O)C(=O)N[C@@H](CC(N)=O)C(=O)N[C@@H]([C@@H](C)O)C(=O)N[C@@H](C)C(=O)N[C@@H]([C@@H](C)O)C(=O)N1)[C@@H](C)O)C(=O)N1CCC[C@H]1C(=O)N[C@@H](CO)C(=O)N[C@@H](CO)C(=O)N[C@H](C(=O)N[C@@H](CC(N)=O)C(=O)N[C@H](C(=O)NCC(=O)N1CCC[C@H]1C(=O)N[C@@H](CCCNC(=N)N)C(=O)N[C@H](C(=O)N[C@@H](Cc1ccc(O)cc1)C(N)=O)[C@@H](C)O)C(C)C)[C@@H](C)O

Target: T1, rat calcitonin receptor
Assay: SPA competition vs 125I-calcitonin, membranes (Assay VIII)

Row | IC50 | Binder
1 | 26.3 nM | B1
2 | 9.05 nM | B2
3 | 223 nM | K([γGlu-γGlu-C20 diacid])CNTATCATQRLADFLRHSSPNFGAIPSSTNVGPRTY-NH2 (disulfide 2-7, also called compound 130)
4 | 52.4 nM | B3
5 | 5.43 nM | K([γGlu-C20 diacid])CNTATCATQRLAEFLRHSSPNFGAIPSSTNVGPHTY-NH2 (disulfide 2-7)
6 | 15.4 nM | B4
7 | 31.9 nM | K([γGlu-γGlu-C20 diacid])CNTATCATQRLADFLRHSSPNFGAIPSSTNVGPETY-NH2 (disulfide 2-7)

Target: T2, rat amylin receptor (rat calcitonin …)
Assay: SPA competition vs 125I-rat amylin, membranes (Assay VI)

Row | IC50 | Binder
8 | 1.16 nM | B1
9 | 0.125 nM | B2
10 | 0.93 nM | K([γGlu-γGlu-C20 diacid])CNTATCATQRLADFLRHSSPNFGAIPSSTNVGPRTY-NH2 (disulfide 2-7, also called compound 130)
11 | 0.381 nM | B3
12 | 0.104 nM | K([γGlu-C20 diacid])CNTATCATQRLAEFLRHSSPNFGAIPSSTNVGPHTY-NH2 (disulfide 2-7)
13 | 0.339 nM | B4
14 | 0.324 nM | K([γGlu-γGlu-C20 diacid])CNTATCATQRLADFLRHSSPNFGAIPSSTNVGPETY-NH2 (disulfide 2-7)

Target: T1, rat calcitonin receptor
Assay: ratio of IC50 on rat calcitonin receptor to IC50 on rat amylin receptor

Row | Ratio rCT/rAmylin binding | Binder
15 | 22.7 | B1
16 | 72.4 | B2
17 | 240 | K([γGlu-γGlu-C20 diacid])CNTATCATQRLADFLRHSSPNFGAIPSSTNVGPRTY-NH2 (disulfide 2-7, also called compound 130)
18 | 137 | B3
19 | 52.2 | K([γGlu-C20 diacid])CNTATCATQRLAEFLRHSSPNFGAIPSSTNVGPHTY-NH2 (disulfide 2-7)
20 | 45.5 | B4
21 | 98.5 | K([γGlu-γGlu-C20 diacid])CNTATCATQRLADFLRHSSPNFGAIPSSTNVGPETY-NH2 (disulfide 2-7)

Target: T3, human calcitonin receptor
Assay: ratio of IC50 on human calcitonin receptor to IC50 on human amylin receptor
Outline: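 IC₅₀ values were derived by one-site competition analysis of SPA counts. Cell membranes (35 ng/μL) with SPA beads were incubated with test compounds for 120 min at 25° C in Hepes buffer, pH 7.4, containing CaCl2, MgCl₂, OA and Tween20.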

Row | Ratio hCT/hAmylin binding | Binder
22 | 26.4 | B1
23 | 24.8 | B2
24 | 280 | K([γGlu-γGlu-C20 diacid])CNTATCATQRLADFLRHSSPNFGAIPSSTNVGPRTY-NH2 (disulfide 2-7, also called compound 130)
25 | 48.6 | B3
26 | 21.2 | K([γGlu-C20 diacid])CNTATCATQRLAEFLRHSSPNFGAIPSSTNVGPHTY-NH2 (disulfide 2-7)
27 | 38.6 | B4
28 | 49.8 | K([γGlu-γGlu-C20 diacid])CNTATCATQRLADFLRHSSPNFGAIPSSTNVGPETY-NH2 (disulfide 2-7)
